Data from US20200377595A1 (Chugai, published 2020).
Residue numbers refer to the chain shown, from its start. Names may count otherwise. Each block holds one binder with its values, some of them ahead of it.

Key:
human CD137 = biological target: T1, human CD137 (human, UniProt Q07011 24-186); assay: ECL, IgG with biotinylated antigen on streptavidin plate, log axis
T1 construct: soluble Biacore analyte; also called hCD137; recombinant human CD137

recombinant human CD3 = biological target: T2, recombinant human CD3 (human); assay: SPR, Ab captured by anti-Fc, 37 C
T2 construct: also called hCD3

[1] = biological target: T3, biotin labeled human IgG1 Fc (human, UniProt P01857-1 104-330 = IgG part, limits assumed, biotin-labeled); assay: bead ELISA, IgG
T3 construct: domain: Fc region; control antigen; also called human Fc

[2] = biological target: T4, biotin-labeled cynomolgus monkey CD137 fused to human IgG1 Fc fragment (cynomolgus monkey; human, UniProt Q07011 24-186, limits assumed, biotin-labeled); assay: ELISA, IgG
T4 construct: also called cyno CD137-Fc; not shown: human IgG1 Fc fragment
T4 chain: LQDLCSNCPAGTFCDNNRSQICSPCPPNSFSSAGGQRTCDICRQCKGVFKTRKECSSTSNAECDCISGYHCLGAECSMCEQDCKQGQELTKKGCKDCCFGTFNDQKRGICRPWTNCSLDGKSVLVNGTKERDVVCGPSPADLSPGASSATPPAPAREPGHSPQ

[3] = biological target: T5, biotin-labeled human CD137 fused to human IgG1 Fc fragment (human, biotin-labeled); assay: bead ELISA; no competitor
T5 construct: also called human CD137-Fc; biotin-human CD137-Fc

[4] = biological target: biotinylated CD3 epsilon epitope peptide; assay: SPR, method of Ref. Ex. 3, one-arm Ab

B2: GPC3/CD137xCD3 trispecific antibody (other)
VH 1: QVQLQQWGAGLLKPSETLSLTCAVYGGSFSGYYWSWIRQSPEKGLEWIGEINHGGYVTYNPSLESRVTISVDTSKNQFSLKLSSVTAADTAVYYCARDYGPGNYDWYFDLWGRGTLVTVSS
VL 1: EIVLTQSPATLSLSPGERATLSCRASQSVSSYLAWYQQKPGQAPRLLIYDASNRATGIPARFSGSGSGTDFTLTISSLEPEDFAVYYCQQRSNWPPALTFGGGTKVEIK
VH 2: QVQLVESGGGLVQPGRSLRLSCAASGFTFSNAWMHWVRQAPGKGLEWVAQIKDRANSYNTYYAESVKGRFTISRDDSKNSIYLQMNSLKTEDTAVYYCRYVHYTTYAGSSFSYGVDAWGQGTTVTVSS
VL 2: DIVMTQSPLSLPVTPGEPASISCRSSQPLVHSNRNTYLHWYQQKPGQAPRLLIYKVSNRFSGVPDRFSGSGSGTDFTLKISRVEAEDVGVYYCGQGTQVPYTFGQGTKLEIK
VH 3: QVQLVQSGAEVKKPGASVTVSCKASGYTFTDYEMHWIRQPPGEGLEWIGAIDGPTPDTAYSEKFKGRVTLTADKSTSTAYMELSSLTSEDTAVYYCTRFYSYTYWGQGTLVTVSS
VL 3: B2 VL 2
notes: mAb AB made by CrossMab and Fab-arm exchange; silent Fc (L235R, G236R, S239K, N297A); also called anti-GPC3/CD137xCD3
Kd (recombinant human CD3): 19.7 nM
koff (recombinant human CD3): 0.00161 s⁻¹
kon (recombinant human CD3): 81800 M⁻¹ s⁻¹

B3: DADU01_3#002 (antibody, IgG1, V domains shown)
VH: QVQLVESGGGLVQPGRSLRLSCAASGFTFSNAWMHWVRQAPGKGLEWVAQIKDKQNLYNAYYAESVKGRFTISRDDSKNSIYLQMNSLKTEDTAVYYCHYVHYASASTVLPAFGVDAWGQGTTVTVSS
VL: B2 VL 2 with P28S
notes: IgG1; also called dBBDu124
RLU [1]: 1920 RLU

B4: DADU01_3#018 (antibody, IgG1, V domains shown)
VH: B3 VH with K54R, Q55A, L57S, E64P, A104S, S105A, V109L, A112S
VL: B2 VL 2 with P28S
notes: IgG1; also called dBBDu123
RLU [1]: 1900 RLU

B5: dBBDu181 (antibody, IgG1, V domains shown)
VH: B3 VH with V48I, K54R, Q55G, L57N, A60N, E64P, S105T, V109L, P111G, F113Y
VL: B2 VL 2 with P28S
notes: IgG1
binding result [2]: binds
ELISA signal [3]: 3240

Now from value to binder:

binding result (human CD137): binds
B1: dBBDu_011 (antibody, V domains shown)
VH: QVQLVESGGGLVQPGRSLRLSCAASGFTFSNAWMHWVRQAPGKGLEWVAQIKDKSSLYNTYYAPSVKGRFTISRDDSKNSIYLQMNSLKTEDTAVYYCRYVHYGASYGFLFAGYGVDAWGQGTTVTVSS
VL: B2 VL 2 with P28S
notes: converted to IgG with human H and L chain constant domains; also called clone 011

RLU [1]: 3260 RLU
B6: DXDU01_3#019 (antibody, IgG1, V domains shown)
VH: QVQLVESGGGLVQPGRSLRLSCAASGFTFSIAWMHWVRQAPGKGLEWVAQIKDKVNGYTAYYAESVKGRFTISRDDSKNSIYLQMNSLKTEDTAVYYCRYVHYAAYYDVLGYGGVDAWGQGTTVTVSS
VL: B2 VL 2 with P28S
notes: IgG1; also called dBBDu125

RLU [1]: 2910 RLU
B7: DXDU01_3#051 (antibody, IgG1, V domains shown)
VH: B3 VH with K54R, Q55G, N56Q, L57Q, E64P, T108S, A112G, F113Y
VL: B2 VL 2 with P28S
notes: IgG1; also called dBBDu127

RLU [1]: 1760 RLU
B8: DADU01_3#001 (antibody, IgG1, V domains shown)
VH: B6 VH with K54R, G57A, T59E, E64P, A105S, V109L
VL: B2 VL 2 with P28S
notes: IgG1; also called dBBDu_126; dBBDu126

RLU [1]: 2370 RLU
B9: DXDU01_3#094 (antibody, IgG1, V domains shown)
VH: B3 VH with Q55G, L57A, N59A, E64P, S107A, T108G, V109G, A112G
VL: B2 VL 2 with P28S
notes: IgG1; also called dBBDu121

Kd [4]: 110 nM
B10: CE115HA000 one-arm antibody (antibody, human IgG1, kappa, L234A L235A, N297A)
heavy: QVQLVESGGGVVQPGRSLRLSCAASGFTFSNAWMHWVRQAPGKGLEWVAQIKAKSNNYATYYAESVKGRFTISRDDSKNSLYLQMNSLKTEDTAVYYCRYVHYGAYYGVDAWGQGTTVTVSSASTKGPSVFPLAPSSKSTSGGTAALGCLVKDYFPEPVTVSWNSGALTSGVHTFPAVLQSSGLYSLSSVVTVPSSSLGTQTYICNVNHKPSNTKVDKKVEPKSCDKTHTCPPCPAPEAAGGPSVFLFPPKPKDTLMISRTPEVTCVVVDVSHEDPEVKFNWYVDGVEVHNAKTKPREEQYASTYRVVSVLTVLHQDWLNGKEYKCKVSNKALPAPIEKTISKAKGQPREPQVYTLPPSRCELTKNQVSLSCAVKGFYPSDIAVEWESNGQPENNYKTTPPVLDSDGSFFLVSKLTVDKSRWQQGNVFSCSVMHEALHNHYTQKSLSLSPDYKDDDDK
chain: EPKSSDKTHTCPPCPAPELLGGPSVFLFPPKPKDTLMISRTPEVTCVVVDVSHEDPEVKFNWYVDGVEVHNAKTKPREEQYNSTYRVVSVLTVLHQDWLNGKEYKCKVSNKALPAPIEKTISKAKGQPREPQVCTLPPSRDELTKNQVSLWCLVKGFYPSDIAVEWESNGQPENNYKTTPPVLDSDGSFFLYSKLTVDKSRWQQGNVFSCSVMHEALHNRYTQKSLSLSP
light: DIVMTQSPLSLPVTPGEPASISCRSSQSLVHSNRNTYLHWYQQKPGQAPRLLIYKVSNRFSGVPDRFSGSGSGTDFTLKISRVEAEDVGVYYCGQGTQVPYTFGQGTKLEIKRTVAAPSVFIFPPSDEQLKSGTASVVCLLNNFYPREAKVQWKVDNALQSGNSQESVTEQDSKDSTYSLSSTLTLSKADYEKHKVYACEVTHQGLSSPVTKSFNRGEC
notes: one-arm antibody
